Results from patent publication US9556249B2, “Neuregulin antagonists and use thereof in treating cancer” (Genentech, Inc., priority 2010, dated 2017).

Legend:
[1] = system: LSL-K-ras^G12D; p53^Fl/Fl lung tumors; test: LSL-K-ras G12D; p53 Fl/Fl lung tumor model, micro-CT tumor burden; format: in vivo, mice
[2] = system: LSL-K-ras^G12D; p53^Fl/+ lung tumors; test: LSL-K-ras G12D; p53 Fl/+ lung tumor model, micro-CT tumor burden; format: in vivo, mice
NRG1/HER3 signaling = test: HER4-ECD added to serum starved LKPH1 and LKPH2 cells, Western blotting; format: cell-based, mouse; conditions: HER4ECD 2 mg/ml, 48 hours
KPL4 = test: KPL4-GFP orthotopic breast cancer model, response to chemotherapy; format: in vivo, SCID/beiz mice; conditions: following completion of chemotherapy regimen; tumors subsequently recurred
Description: Several cancer models that show significant regression in response to chemotherapy followed by tumor relapse after the cessation of therapy (FIG. 1) were generated and used to study the cells that are responsible for tumor re-initiation. These cells are tumor reinitiating cells (TRICs). In order to generate the models, GFP labeled human tumor cells were transplanted subcutaneously, and when tumor size reached ˜200 mm^3, mice were treated with either vehicle or chemotherapy as shown in the respective models. GFP+ tumor cells were isolated from regressed or vehicle treated tumors by FACS-sorting after enzymatic digestion and dissociation. Tumors were collected a minimum of one week after the last dose of chemotherapy and before the resumption of tumor growth.
GFP-expressing sublines of the human breast cancer cell line KPL4 were transplanted orthotropically to the mammary fat pad of SCID/beiz mice. For the KPL4 model, chemotherapy consisted of Paclitaxel (20 mg/kg, i.v. every other day for 5 doses). FIG. 2C (data presented as mean tumor volume±SEM, n=12 mice/group).

[3] = system: LSL-K-ras^G12D lung tumors; conditions: LSL-K-ras^G12D mice (Oliver et al., 2010); cited from earlier work
[4] = system: LSL-K-ras^G12D lung tumors; test: LSL-K-ras G12D x Z/EG mouse NSCLC model, FACS of GFP-positive tumor cells; format: in vivo; conditions: one week after final dose of cisplatin, vs vehicle controls
Description: In addition, the LSL-K-ras^G12D genetically engineered mouse model of NSCLC (Jackson et al., 2001) was crossed to the Z/EG Cre-reporter strain (Novak et al., 2000) and used in this study. Cisplatin (7 mg/kg i.p. every 7 days for 3 doses) was started 12 weeks after AdenoCre infection of the lungs (ie. tumor initiation). Lungs were collected 1 week after the last dose of chemotherapy and tumor cells were isolated by FACS after enzymatic digestion and dissociation. […] FIG. 2D (data presented as the average number of GFP positive cells per lung±SEM, n=6/group).

NRG1 mRNA = NRG1 mRNA levels in H1299 subline expressing shNRG1.2; format: cell-based, human; conditions: compared with shNRG1
H1299-shNRG1.2 = H1299-shNRG1.2 in vivo study; conditions: magnitude of growth inhibition smaller than with shNRG1
H441 cells = test: Exogenous NRG1 stimulation of serum starved H441 cells, Western blotting; format: cell-based, human; conditions: 1 uM NRG1, ten minutes
HER4 = HER4 knockdown in Calu3-shHER4 cells, qPCR; format: cell-based, human; conditions: dox 2 ug/ml
[5] = system: Calu3-shHer4 xenograft tumors; test: Calu3-shHER4 xenograft tumor growth; format: in vivo, mice; conditions: dox vs sucrose
[6] = system: Calu3-shHER3 xenograft tumors; test: Calu3-shHER3 xenograft tumor growth; format: in vivo, mice; conditions: dox treatment; vs sucrose TDT=11 days
HER3 = HER3 knockdown in Calu3-shHER3 cells, qPCR and Western blot; format: cell-based, human

## HER4-ECD: fusion of the human HER4 extracellular domain to murine IgG2A Fc; ligand trap to sequester NRG1
[1]; HER4-ECD treatment alone
  effect on tumor growth: no effect
[1]; day 28, cisplatin+HER4-ECD vs cisplatin+vehicle and all other groups
  tumor burden by micro-CT: significant reduction in tumor burden
[2]; cisplatin+HER4-ECD combination
  tumor growth (average tumor burden and tumor growth rate): significant inhibition of tumor growth
NRG1/HER3 signaling
  p-HER3 levels: diminished

## CC(=O)O[C@H]1C(=O)[C@@]2(C)[C@H]([C@H](OC(=O)c3ccccc3)[C@]3(O)C[C@H](OC(=O)[C@H](O)[C@@H](NC(=O)c4ccccc4)c4ccccc4)C(C)=C1C3(C)C)[C@]1(OC(C)=O)CO[C@@H]1C[C@@H]2O [Paclitaxel]
KPL4
  tumor size vs vehicle-treated mice: significantly smaller

## N.N.[Cl][Pt][Cl] [cisplatin]
[3]
  survival: does not result in prolonged survival
[4]
  number of GFP-positive tumor cells per lung: significant decrease in tumor cell number
[2]; cisplatin+control IgG2A
  average tumor burden at conclusion of study and overall tumor growth rate vs vehicle: not significantly different

B1: shNRG1.2: a different doxycycline-inducible shRNA to NRG1 (SEQ ID NO: 3 and 4) (nucleic acid)
chain 1: GATCCCCGAGTATATGTGCAAAGTGATTCAAGAGATCACTTTGCACATATACTCTTTTTTGGAAA
chain 2: AGCTTTTCCAAAAAAGAGTATATGTGCAAAGTGATCTCTTGAATCACTTTGCACATATACTCGGG
NRG1 mRNA
  reduction in NRG1 mRNA levels: more modest reduction
H1299-shNRG1.2
  response to chemotherapy upon NRG1 knockdown: enhanced response to chemotherapy

B2: NRG1: recombinant human NRG1 beta-1 extracellular domain (R&D systems), exogenous ligand (protein, UniProt Q02297 20-242, looked up)
extracellular domain: SGKKPESAAGSQSPALPPRLKEMKSQESAAGSKLVLRCETSSEYSSLRFKWFKNGNELNRKNKPQNIKIQKKPGKSELRINKASLADSGEYMCKVISKLGNDSASANITIVESNEIITGMPASTEGAYVSSESPIRISVSTEGANTSSSTSTSTTGTSHLVKCAEKEKTFCVNGGECFMVKDLSNPSRYLCKCQPGFTGARCTENVPMKVQNQEKAEELYQKR
modifications: extracellular domain
notes: recombinant human NRG1 beta-1 extracellular domain (R&D systems), exogenous ligand
H441 cells
  levels of p-Stat3 or p-Mek1/2: no detectable changes
  p-HER3 and p-AKT: increase

B3: shHER4: dox-inducible shRNA to HER4 (SEQ ID NO: 5 and 6) (nucleic acid)
chain 1: GATCCCCGATCACAACTGCTGCTTAATTCAAGAGATTAAGCAGCAGTTGTGATCTTTTTTGGAAA
chain 2: AGCTTTTCCAAAAAAGATCACAACTGCTGCTTAATCTCTTGAATTAAGCAGCAGTTGTGATCGGG
HER4
  HER4 transcript levels: decreased
[5]
  inhibition of tumor growth: not a notable inhibition of tumor growth

B4: shHER3: dox-inducible shRNA to HER3 (SEQ ID NO: 7 and 8) (nucleic acid)
chain 1: GATCCCCAAGAGGATGTCAACGGTTATTCAAGAGATAACCGTTGACATCCTCTTTTTTTTGGAAA
chain 2: AGCTTTTCCAAAAAAAAGAGGATGTCAACGGTTATCTCTTGAATAACCGTTGACATCCTCTTGGG
[6]
  time to doubling (TDT): 19 days
HER3; dox 2 ug/ml, qPCR
  HER3 transcript levels: decreased
HER3; in the presence of dox, compared with Calu3-shHER4
  extent of p-AKT down-regulation: much greater
